B1: scFv; the commonest letter at each place (parent)
chain 1: EVKLDETGGGLVQPGRPMKLSCVASGFTFSDYWMNWVRQSPEKGLEWVAQIRNKPYNYETYYSDSVKGRFTISRDDSKSSVYLQMNNLRVEDMGIYYCTGSYYGMDYWGQGTSVTVS
chain 2: DVVMTQTPLSLPVSLGDQASISCRSSQSLVHSNGNTYLRWYLQKPGQSPKVLIYKVSNRFSGVPDRFSGSGSGTDFTLKISRVEAEDLGVYFCSQSTHVPWTFGGGTKLEIK

How the values were obtained:
[1] = variants of: B1; assay: Kd (Tite-Seq); details: with fluorescein; format: scFv 4-4-20, heavy + light
[2] = variants of: B1; assay: yeast surface expression (ratio to wild type); higher = more expressed; details: format: scFv 4-4-20, heavy + light

Variant | Kd [1] [µM] | yeast surface expression [2]
chain 1 EVKLDETGGGLVQPGRPMKLSCVASGFTFIDYWMNPERQSPEKGLEWVAQIRNKPYNYETYYSDSVKGRFTISRDDSKSSVYLQMNNLRVEDMGIYYCTGSYYGMDYWGQGTSVTVS chain 2 DVVMTQTPLSLPVSLGDQASISCRSSQSLVHSNGNTYLRWYLQKPGQSPKVLIYKVSNRFSGVPDRFSGSGSGTDFTLKISRVEAEDLGVYFCSQSTHVPWTFGGGTKLEIK [chain 1 S30I W36P V37E] | ≥ 10 | 0.93
chain 1 EVKLDETGGGLVQPGRPMKLSCVASGFTFSDYWMNWVRQSPEKGLEWVAQIRNKPYNYETYYSDSVKGRFTISRDDSKSSVYLQMNNLRVEDMGIYYCTGKYYWVDYWGQGTSVTVS chain 2 DVVMTQTPLSLPVSLGDQASISCRSSQSLVHSNGNTYLRWYLQKPGQSPKVLIYKVSNRFSGVPDRFSGSGSGTDFTLKISRVEAEDLGVYFCSQSTHVPWTFGGGTKLEIK [chain 1 S101K G104W M105V] | ≥ 10 | 0.205
chain 1 EVKLDETGGGLVQPGRPMKLSCVASGFTISDKWMNWVRQSPEKGLEWVAQIRNKPYNYETYYSDSVKGRFTISRDDSKSSVYLQMNNLRVEDMGIYYCTGSYYGMDYWGQGTSVTVS chain 2 DVVMTQTPLSLPVSLGDQASISCRSSQSLVHSNGNTYLRWYLQKPGQSPKVLIYKVSNRFSGVPDRFSGSGSGTDFTLKISRVEAEDLGVYFCSQSTHVPWTFGGGTKLEIK [chain 1 F29I Y32K] | 0.00226 | 1.07
chain 1 EVKLDETGGGLVQPGRPMKLSCVASGFTFSNYWANWVRQSPEKGLEWVAQIRNKPYNYETYYSDSVKGRFTISRDDSKSSVYLQMNNLRVEDMGIYYCTGSYYGMDYWGQGTSVTVS chain 2 DVVMTQTPLSLPVSLGDQASISCRSSQSLVHSNGNTYLRWYLQKPGQSPKVLIYKVSNRFSGVPDRFSGSGSGTDFTLKISRVEAEDLGVYFCSQSTHVPWTFGGGTKLEIK [chain 1 D31N M34A] | 0.00194 | 0.614
chain 1 EVKLDETGGGLVQPGRPMKLSCVASGFTFTDYVMNWVRQSPEKGLEWVAQIRNKPYNYETYYSDSVKGRFTISRDDSKSSVYLQMNNLRVEDMGIYYCTGSYYGMDYWGQGTSVTVS chain 2 DVVMTQTPLSLPVSLGDQASISCRSSQSLVHSNGNTYLRWYLQKPGQSPKVLIYKVSNRFSGVPDRFSGSGSGTDFTLKISRVEAEDLGVYFCSQSTHVPWTFGGGTKLEIK [chain 1 S30T W33V] | ≥ 10 | 0.899
chain 1 EVKLDETGGGLVQPGRPMKLSCVASGFTFSDYAMNWNRQSPEKGLEWVAQIRNKPYNYETYYSDSVKGRFTISRDDSKSSVYLQMNNLRVEDMGIYYCTGSYYGMDYWGQGTSVTVS chain 2 DVVMTQTPLSLPVSLGDQASISCRSSQSLVHSNGNTYLRWYLQKPGQSPKVLIYKVSNRFSGVPDRFSGSGSGTDFTLKISRVEAEDLGVYFCSQSTHVPWTFGGGTKLEIK [chain 1 W33A V37N] | ≥ 10 | 0.49
chain 1 EVKLDETGGGLVQPGRPMKLSCVASGFTFSDYWMNWVRQSPEKGLEWVAQIRNKPYNYETYYSDSVKGRFTISRDDSKSSVYLQMNNLRVEDMGIYYCTGSYYGMNYKGQGTSVTVS chain 2 DVVMTQTPLSLPVSLGDQASISCRSSQSLVHSNGNTYLRWYLQKPGQSPKVLIYKVSNRFSGVPDRFSGSGSGTDFTLKISRVEAEDLGVYFCSQSTHVPWTFGGGTKLEIK [chain 1 D106N W108K] | ≥ 10 | 0.446
chain 1 EVKLDETGGGLVQPGRPMKLSCVASGFTFNDYWMNDVRQSPEKGLEWVAQIRNKPYNYETYYSDSVKGRFTISRDDSKSSVYLQMNNLRVEDMGIYYCTGSYYGMDYWGQGTSVTVS chain 2 DVVMTQTPLSLPVSLGDQASISCRSSQSLVHSNGNTYLRWYLQKPGQSPKVLIYKVSNRFSGVPDRFSGSGSGTDFTLKISRVEAEDLGVYFCSQSTHVPWTFGGGTKLEIK [chain 1 S30N W36D] | ≥ 10 | 0.393
chain 1 EVKLDETGGGLVQPGRPMKLSCVASGFPFSDYWSNWVRQSPEKGLEWVAQIRNKPYNYETYYSDSVKGRFTISRDDSKSSVYLQMNNLRVEDMGIYYCTGSYYGMDYWGQGTSVTVS chain 2 DVVMTQTPLSLPVSLGDQASISCRSSQSLVHSNGNTYLRWYLQKPGQSPKVLIYKVSNRFSGVPDRFSGSGSGTDFTLKISRVEAEDLGVYFCSQSTHVPWTFGGGTKLEIK [chain 1 T28P M34S] | 0.0154 | 0.95
chain 1 EVKLDETGGGLVQPGRPMKLSCVASGFTFSDYWMNWVRQSPEKGLEWVAQIRNKPYNYETYYSDSVKGRFTISRDDSKSSVYLQMNNLRVEDMGIYYCTWSYYGMDDWLQGTSVTVS chain 2 DVVMTQTPLSLPVSLGDQASISCRSSQSLVHSNGNTYLRWYLQKPGQSPKVLIYKVSNRFSGVPDRFSGSGSGTDFTLKISRVEAEDLGVYFCSQSTHVPWTFGGGTKLEIK [chain 1 G100W Y107D G109L] | ≥ 10 | 0.227
chain 1 EVKLDETGGGLVQPGRPMKLSCVASGFTFSDYWMNWVRQSPEKGLEWVAQIRNKPYNYETYYSDSVKGRFTISRDDSKSSVYLQMNNLRVEDMGIYYCTGSYYTMDYAGQGTSVTVS chain 2 DVVMTQTPLSLPVSLGDQASISCRSSQSLVHSNGNTYLRWYLQKPGQSPKVLIYKVSNRFSGVPDRFSGSGSGTDFTLKISRVEAEDLGVYFCSQSTHVPWTFGGGTKLEIK [chain 1 G104T W108A] | ≥ 10 | 0.326
chain 1 EVKLDETGGGLVQPGRPMKLSCVASGFTFHDYWMNWVRQSPEKGLEWVAQIRNKPYNYETYYSDSVKGRFTISRDDSKSSVYLQMNNLRVEDMGIYYCTGSYYGMDYWGQGTSVTVS chain 2 DVVMTQTPLSLPVSLGDQASISCRSSQSLVHSNGNTYLRWYLQKPGQSPKVLIYKVSNRFSGVPDRFSGSGSGTDFTLKISRVEAEDLGVYFCSQSTHVPWTFGGGTKLEIK [chain 1 S30H] | 0.00317 | 0.839

Reference: the FLAb antibody collection (doi:10.7554/elife.23156)
